The values below come from patent US20200399375A1 (SUZHOU SUNCADIA BIOPHARMACEUTICALS, published 2020).

Assay [1] deals with T1, PD-L1 Fc fusion protein: PD-L1 (ECD)-Fc (human IgG1) (human).
T1 construct: Coated on the plate in Tests 1 to 3; also called huPD-L1-Fc; VKL-PD-L1(ECD)-Fc(human IgG1)
The experiment in a line: blocking ELISA, PD-L1(ECD)-Fc coated, competitor biotin-PD-1-Fc. Here is the method: The dilution of biotin (Dojindo Chemical, LK03: 3 samples) and avidin (Sigma, S2438-250UG) was 6% BSA (diluted with PBS containing 0.1% Tween20), and PBS was used as coating solution. Microtitration plates were directly coated with 1 μg/ml ([…]) of PD-L1(ECD)-Fc(SEQ ID NO: 4) and incubated at 4° C. overnight. The plate was washed three times and was blocked for 2h at 37° C. with 3% BSA(diluted with PBS containing 0.1% Tween20). The plate was washed three times and 50 μl/well of cell supernatant was added to each well. Then 50 μl/well of bio-PD-1-Fc (biotin-labeled PD-1-Fc, SEQ ID NO: 5, 2 μg/ml, PD-1-FC was labeled according to the method of Dojindo Chemical Kits Biotin Labeling Kit-NH2, LK03: 3 samples) was added to each well, well-mixed by vortex, and incubated at 37° C. for 1 h. The plates were washed 6 times, followed by addition of 50 μl/well Streptavidin-Peroxidase Polymer (S2438-250UG, Sigma, which was diluted at a ratio of 1:400), and incubated on shaker for 50 min at room temperature. The plate was washed 6 times, and then I00 μl/well of TMB was added, and incubated for 5-10 min at 37° C. Then the reaction was terminated with addition of 100 μl/well of 1M H2SO₄. The absorbance value was read on microplate reader (BMG Labtech, NOVOStar) at 450 nm, and the IC₅₀ value for blocking the binding of PD-1 antibody to ligand PD-L1 was calculated.

Assay [2] addresses T1, PD-L1 Fc fusion protein: PD-L1 (ECD)-Fc …. The experiment in a line: blocking ELISA, PD-L1(ECD)-Fc coated, competitor biotin-human B7.1.
The target in assay [3] is T2, human PD-L1 antigen (huPD-L1-his, Sino biological, 10084-H08H-200) (human, UniProt Q9NZQ7 19-239).
T2 construct: Bought protein; also called human PD-L1-his; not shown: His tag
As to the kind of experiment: Biacore X100, antibody captured by anti-human antibody on CM5, antigen in flow, 1:1 Langmuir.

The target of assay [4] is T3, cynomolgus PD-L1 antigen (Cyno PD-L-his, Sino 90251-C08H-100) (cynomolgus, UniProt G7PSE7 19-239).
T3 construct: Bought protein; also called CynoPD-L1-his; not shown: His tag
The description is as above.

The target of assay [5] is T1, PD-L1 Fc fusion protein: PD-L1 (ECD)-Fc …. As to the kind of experiment: hybridoma screening, binding ELISA on coated PD-L1(ECD)-Fc (Test 1). Here is the method: On day 10-11 after fusion, an ELISA assay was performed on PD-L1 binding according to the density of the growing cells (see Test 1). For the positive cells detected in the ELISA assay (Test 1), blockade in PD-L1/PD-1 binding was detected via ELISA analysis (see Test 2). Medium in the positive wells was changed and the positive cells were expanded to a 24-well plate depending on cell density. After re-testing, the cells transferred into the 24-well plate were used for breed conservation and first sub-cloning. The positive cells during the first sub-clone screening (see Test 1) were used for breed conservation and subjected to a second sub-cloning. The positive cells during the second sub-cloning were (see Test 1) used for breed conservation and protein expression. Hybridoma cells having blocking effect on PD-L1 and PD-1 binding (see Test 2) were obtained by multiple cell fusions.
Microtitration plates were directly coated with 1 μg/ml ([…]) of PD-L1(ECD)-Fc(SEQ ID NO: 4) and incubated at 4° C. overnight. Then the plates were blocked with 150 μl/well of PBS containing 5% Skim Milk(BD, 232100) and incubated at 4° C. overnight. […] The reaction was stopped by the addition of 50 μl/well of 1M H₂SO₄ to each well and the OD value was read on an ELISA microplate reader (BMG Labtech, NOVOStar) at a wavelength of 450 nm.

The target in assay [6] is T2, human PD-L1 antigen (huPD-L1-his, Sino …). The experiment in a line: BIACORE (Test 4). The source says: The anti-human capture antibody was covalently linked to the CM5 biochip (GE, BR-1000-12) according to the method described in the anti-human trapping kit (GE, BR-1008-39) instructions for affinity capturing the PD-L1 antibody of the present invention. Then, a series of concentrations of human PD-L1 antigen (Sino biological, 0084-H08H-200) were flowed through the surface of the biochip, and the reaction signal was detected in real time using a Biacore instrument (GE, BiacoreX100) to obtain the association and dissociation curves. Finally, the affinity values were obtained by fitting. After each cycle of dissociation was finished in the experiment, the biochip was washed and regenerated with regeneration solution in the anti-human capture kit (GE). The data obtained was analyzed by GE's BIA evaluation software using a 1:1(Langmuir) binding model. Ka (kon), kd (koff) and KD values were determined by the assay. The affinity of hybridoma antibodies and humanized antibodies has been summarized in other examples.

For assay [7] the target is unchanged. The experiment in a line: affinity measurement; method and antigen not named in the sentence (PD-L1).

B1: HRP00049: 9-2(H2/L10) IgG4 (AA)(S228P) (antibody, V domains shown)
VH: QVQLQESGPGLVKPSQTLSLTCTVSGGSISNDYWTWIRQHPGKGLEYIGYISYTGSTYYNPSLKSRVTISRDTSKNQFSLKLSSVTAADTAVYYCARSGGWLAPFDYWGRGTLVTVSS
VL: DIVMTQSPDSLAVSLGERATINCKSSQSLFYHSNQKHSLAWYQQKPGQPPKLLIYGASTRESGVPDRFSGSGSGTDFTLTISSLQAEDVAVYYCQQYYGYPYTFGGGTKVEIKR
notes: kappa light chain; also called humanized antibody 9-2
For the molecule B1, the IC50 in assay [1] is 0.174 µg/mL. The IC50 in assay [2] turned out to be 0.113 µg/mL. In assay [3], the Kd was 0.17 nM, the koff worked out at 0.000162 s⁻¹ and the on-rate (kon) came out at 952000 M⁻¹ s⁻¹. In assay [4], this molecule registered a Kd of 0.172 nM, a koff of 0.000167 s⁻¹ and a kon of 974000 M⁻¹ s⁻¹.

B2: murine antibody of hybridoma clone 9-2 (antibody, V domains shown)
VH: EVQLQESGPGLAKPSQTLSLTCSVAGYSITNDYWNWIRKFPGNKLEYMGYISYTGSTYYNPSLKSRLSITRDTSKNQYYLQLNSVTAEDTAIYYCARSGGWLAPFDYWGRGTTLTVSS
VL: DIVMSQSPSSLVVSVGEKVIMSCKSSQSLFYRSNQKNSLAWYQQKPGQSPKLLIYGASTRESGVPDRFTGSGSGTDFTVTISSVKAEDLAVYYCQQYYGYPYTFGGGTKLEIK
notes: Mouse hybridoma antibody; also called hybridoma antibody 9-2; murine antibody 9-2
In the case of B2, in assay [5], the binding result is “binds”.

B3: 9-2 chimeric antibody (antibody, V domains shown)
VH: B2 VH
VL: B2 VL
notes: also called the chimeric antibody (of 9-2)
With B3, the binding result in assay [6] is recorded as “binds”.

B4: HRP00052: 24D5(GF) IgG4 (AA) (S228P) (antibody, V domains shown)
VH: QVQLVQSGAEVKKPGASVKVSCKASGYTFTSYWMHWVRQAPGQGLEWMGRIGPNSGFTSYNEKFKNRVTMTRDTSTSTVYMELSSLRSEDTAVYYCARGGSSYDYFDYWGQGTTVTVSS
VL: DIVLTQSPASLAVSPGQRATITCRASESVSIHGTHLMHWYQQKPGQPPKLLIYAASNLESGVPARFSGSGSGTDFTLTINPVEAEDTANYYCQQSFEDPLTFGQGTKLEIKR
notes: kappa light chain; also called 24D5 29H1 GF; humanized antibody 24D5
As to B4, the IC50 was determined as 0.114 µg/mL in assay [1] and 0.0696 µg/mL in assay [2]. For the same molecule, the Kd in assay [3] stood at 0.057 nM; in assay [4], 0.0579 nM. Further, the koff was 0.000101 s⁻¹ in assay [3] and 0.000106 s⁻¹ in assay [4]. Moreover, the kon came to 1.77e+06 M⁻¹ s⁻¹ in assay [3] and 1.84e+06 M⁻¹ s⁻¹ in assay [4].

B5: chimeric antibody of 24D5 with a back-mutation from serine to cysteine at position 96 (antibody, V domains shown)
VH: QVQLQQPGAELVKPGASVKLSCKASGYTFTSYWMHWVQQRPGQGLEWIGRIHPNSGGTSYNEKFKNRATLTVDKSSSTAYMQFSSLTSEDSAVYYCARGGSSYDYFDYWGQGTTLTVSS
VL: DIVLTQSPASLAVSLGQRATISCRASESVSIHGTHLMHWYQQKPGQPPKLLIYAASNLESGVPARFSGSGSETDFTLNIHPVEEEDATTYFCQQSFEDPLTFGAGTKLELK
notes: it is put on the VH because the printed VH has S at 96 and C at 22 (the disulfide partner named); also called 24D5 chimeric S96C
Consider B5, for which the binding result in assay [7] is on record as “binds”.
